Measurements taken from IntAct's records for PubMed 35512704.

B1: Speckle-type POZ protein (Homo sapiens), O43791 (parent)
chain: MSRVPSPPPPAEMSSGPVAESWCYTQIKVVKFSYMWTINNFSFCREEMGEVIKSSTFSSGANDKLKWCLRVNPKGLDEESKDYLSLYLLLVSCPKSEVRAKFKFSILNAKGEETKAMESQRAYRFVQGKDWGFKKFIRRDFLLDEANGLLPDDKLTLFCEVSVVQDSVNISGQNTMNMVKVPECRLADELGGLWENSRFTDCCLCVAGQEFQAHKAILAARSPVFSAMFEHEMEESKKNRVEINDVEPEVFKEMMCFIYTGKAPNLDKMADDLLAAADKYALERLKVMCEDALCSNLSVENAAEILILADLHSADQLKTQAVDFINYHASDVLETSGWKSMVVSHPHLVAEAYRSLASAQCPFLGPPRKRLKQS
partner: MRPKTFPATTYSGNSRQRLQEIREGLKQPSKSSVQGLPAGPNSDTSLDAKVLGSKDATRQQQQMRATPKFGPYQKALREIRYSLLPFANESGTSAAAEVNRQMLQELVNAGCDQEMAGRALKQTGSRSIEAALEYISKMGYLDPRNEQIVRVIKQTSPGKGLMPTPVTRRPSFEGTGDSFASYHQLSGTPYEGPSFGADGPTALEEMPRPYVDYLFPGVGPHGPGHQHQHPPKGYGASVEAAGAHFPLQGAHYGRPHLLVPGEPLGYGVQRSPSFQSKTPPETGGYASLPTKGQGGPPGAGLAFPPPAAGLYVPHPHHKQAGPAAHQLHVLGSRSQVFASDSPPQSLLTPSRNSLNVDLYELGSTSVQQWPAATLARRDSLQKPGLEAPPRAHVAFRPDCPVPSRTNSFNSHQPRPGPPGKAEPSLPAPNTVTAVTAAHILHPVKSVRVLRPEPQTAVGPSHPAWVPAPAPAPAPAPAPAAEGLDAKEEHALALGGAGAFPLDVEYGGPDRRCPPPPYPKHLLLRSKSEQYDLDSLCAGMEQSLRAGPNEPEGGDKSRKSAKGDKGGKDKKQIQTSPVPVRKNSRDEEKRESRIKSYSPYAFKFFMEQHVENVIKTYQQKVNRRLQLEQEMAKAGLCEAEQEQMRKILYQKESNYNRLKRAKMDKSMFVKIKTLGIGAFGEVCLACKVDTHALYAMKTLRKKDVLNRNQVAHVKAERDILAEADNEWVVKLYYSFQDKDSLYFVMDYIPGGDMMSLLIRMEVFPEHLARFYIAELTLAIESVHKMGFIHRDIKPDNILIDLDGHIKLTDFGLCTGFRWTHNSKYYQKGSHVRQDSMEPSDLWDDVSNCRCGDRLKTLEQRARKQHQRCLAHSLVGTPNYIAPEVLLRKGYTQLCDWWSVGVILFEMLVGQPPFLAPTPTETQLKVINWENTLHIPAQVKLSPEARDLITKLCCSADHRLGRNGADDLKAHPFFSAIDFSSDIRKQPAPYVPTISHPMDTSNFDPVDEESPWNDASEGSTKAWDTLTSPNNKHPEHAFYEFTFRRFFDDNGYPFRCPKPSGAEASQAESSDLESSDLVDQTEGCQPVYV
B2: Speckle-type POZ protein (Homo sapiens), O43791 (parent)
chain: B1 chain
partner: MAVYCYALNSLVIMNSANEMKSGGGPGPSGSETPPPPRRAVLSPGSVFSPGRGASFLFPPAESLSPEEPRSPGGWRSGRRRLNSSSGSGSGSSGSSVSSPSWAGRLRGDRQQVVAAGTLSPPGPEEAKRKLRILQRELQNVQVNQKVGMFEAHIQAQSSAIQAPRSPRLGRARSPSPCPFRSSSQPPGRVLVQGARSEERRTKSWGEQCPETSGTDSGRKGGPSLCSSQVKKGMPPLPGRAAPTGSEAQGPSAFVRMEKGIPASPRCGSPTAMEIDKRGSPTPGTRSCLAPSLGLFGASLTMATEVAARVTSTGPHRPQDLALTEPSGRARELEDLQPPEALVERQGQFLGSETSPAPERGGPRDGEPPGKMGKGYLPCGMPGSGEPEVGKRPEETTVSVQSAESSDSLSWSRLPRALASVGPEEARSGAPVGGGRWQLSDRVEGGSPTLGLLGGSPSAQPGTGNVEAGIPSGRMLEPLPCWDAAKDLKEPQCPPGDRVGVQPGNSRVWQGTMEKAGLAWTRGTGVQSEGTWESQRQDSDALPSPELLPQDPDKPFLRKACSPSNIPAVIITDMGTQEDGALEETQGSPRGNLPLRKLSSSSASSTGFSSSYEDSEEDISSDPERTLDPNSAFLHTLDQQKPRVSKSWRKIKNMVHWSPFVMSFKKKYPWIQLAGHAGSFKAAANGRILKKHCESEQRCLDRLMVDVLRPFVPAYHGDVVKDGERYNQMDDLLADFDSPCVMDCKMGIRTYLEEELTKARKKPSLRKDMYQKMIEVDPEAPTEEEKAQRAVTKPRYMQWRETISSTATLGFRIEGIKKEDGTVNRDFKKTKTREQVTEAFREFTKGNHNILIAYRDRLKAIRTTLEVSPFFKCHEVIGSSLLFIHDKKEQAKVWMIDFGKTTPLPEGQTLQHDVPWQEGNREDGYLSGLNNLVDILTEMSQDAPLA
B3: Speckle-type POZ protein (Homo sapiens), O43791 (parent)
chain: B1 chain
partner: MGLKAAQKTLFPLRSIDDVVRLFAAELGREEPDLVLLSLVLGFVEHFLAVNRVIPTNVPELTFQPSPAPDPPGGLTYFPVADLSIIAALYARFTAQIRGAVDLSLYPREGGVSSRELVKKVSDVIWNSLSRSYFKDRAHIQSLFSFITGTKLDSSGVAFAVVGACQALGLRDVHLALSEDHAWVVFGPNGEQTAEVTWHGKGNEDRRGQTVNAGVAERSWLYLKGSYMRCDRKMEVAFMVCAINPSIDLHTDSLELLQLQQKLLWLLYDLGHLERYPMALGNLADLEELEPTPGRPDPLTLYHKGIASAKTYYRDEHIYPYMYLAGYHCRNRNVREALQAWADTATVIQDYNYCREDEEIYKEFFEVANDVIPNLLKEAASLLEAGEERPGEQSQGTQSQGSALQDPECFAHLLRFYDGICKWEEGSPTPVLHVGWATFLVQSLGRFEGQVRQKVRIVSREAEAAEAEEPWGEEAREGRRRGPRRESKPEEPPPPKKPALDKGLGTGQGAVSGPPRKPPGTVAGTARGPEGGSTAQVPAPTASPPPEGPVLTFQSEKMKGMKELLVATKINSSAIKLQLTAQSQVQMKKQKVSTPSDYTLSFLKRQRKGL

Variants of: B1
Details: with lats2_human LATS2, Q9NRM7

Variant | effect of a mutation on the interaction
F102C | with no effect

Variants of: B1
Details: with lats2_human LATS2, Q9NRM7
Remark: another data set of the same source

Variant | effect of a mutation on the interaction
F133V | with no effect

Variants of: B1
Details: with lats2_human LATS2, Q9NRM7
Remark: another data set of the same source

Variant | effect of a mutation on the interaction
F133L | with no effect

Variants of: B1
Details: with lats2_human LATS2, Q9NRM7
Remark: another data set of the same source

Variant | effect of a mutation on the interaction
Y87C | with no effect

Variants of: B2
Details: with ip3kb_human ITPKB

Variant | effect of a mutation on the interaction
Y87C | with no effect

Variants of: B2
Details: with ip3kb_human ITPKB
Remark: another data set of the same source

Variant | effect of a mutation on the interaction
F133V | with no effect

Variants of: B2
Details: with ip3kb_human ITPKB
Remark: another data set of the same source

Variant | effect of a mutation on the interaction
F133L | with no effect

Variants of: B2
Details: with ip3kb_human ITPKB
Remark: another data set of the same source

Variant | effect of a mutation on the interaction
F102C | with no effect

Variants of: B3
Details: with men1_human MEN1, O00255

Variant | effect of a mutation on the interaction
F102C | with no effect

Variants of: B3
Details: with men1_human MEN1, O00255
Remark: another data set of the same source

Variant | effect of a mutation on the interaction
Y87C | with no effect

Variants of: B3
Details: with men1_human MEN1, O00255
Remark: another data set of the same source

Variant | effect of a mutation on the interaction
F133V | with no effect

Variants of: B3
Details: with men1_human MEN1, O00255
Remark: another data set of the same source

Variant | effect of a mutation on the interaction
F133L | with no effect
